# Source: the supplement of paper PMC10567573
# B1: C22orf31 (parent)
# chain: YSLELGKAIKQKLWEALCSQGAIS
# B2: PSD2 (parent)
# chain: LTHFSRRYCQCNPDDSTSEDGIHT
# Variants of: B1
# Experiment: protein stability index of a GFP-peptide fusion (GPS, HEK-293T) (PSI 1-6); higher = more stable
# Conditions: c terminus: a fixed tail appended
# 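Further: lentivirally expressed fusions sorted by FACS into six bins by GFP to DsRed ratio, PSI derived from sequencing read proportions per bin multiplied by bin number.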
row,Variant,protein stability index
1,K10H,1.95
2,K10F,3.08
3,K10R,1.15
4,Y1P,2.12
5,Y1I,3.2
6,S2R,2.42
7,A22D,1.59
8,S24T,1.83
9,E15N,3
10,E15F,3
11,E15K,2.73
12,L5E,2.21
13,L3D,1.38
14,L3K,2.03
15,E4F,3.85
16,E4A,2.96
17,E4C,2.69
18,L13W,1.94
19,L13D,2.37
20,K7G,1.24
21,G21I,4.15
22,C18H,1.66
23,G6T,1.86

row,Variant,protein stability index
1,G6R,2.73
2,L17H,1.47
3,L17A,1.25
4,K12L,2.66
5,K12E,1.85
6,K12N,1.93
7,K12H,1.98
8,A16L,1.77
9,A16N,1.29
10,A16C,2.24
11,W14P,3.34
12,W14H,1.34
13,I23N,1.7
14,I23M,2.22
15,I9F,2.02
16,I9M,1.07
17,Q11Y,1.92
18,A8K,1.61
19,A8D,1.76
20,A8R,2.51
21,A8I,2.24
22,A8V,2.75

# Variants of: B2
# Experiment: as above
# Conditions: c terminus: a fixed tail appended
row,Variant,protein stability index
1,I22A,3.91
2,I22F,2.72
3,I22L,3.24
4,I22D,4.27
5,I22M,3.49
6,I22H,3.7
7,I22K,3.12
8,I22W,2.43
9,I22N,3.98
10,I22Y,3.29
11,I22T,3.59
12,I22V,3.71
13,I22E,3.87
14,I22G,3.66
15,I22S,3.87
16,I22R,3.22
17,I22Q,3.85
18,I22P,2.9
19,S18L,2.35
20,S18R,1.89
21,S18Q,3.43
22,S18Y,2.35
23,S18P,3.58
24,S18W,2.28
25,S18M,2.97

row,Variant,protein stability index
1,S18T,2.57
2,S18V,2.35
3,S18N,3.67
4,S18K,2.88
5,E19T,3.02
6,E19P,2.37
7,E19I,2.2
8,E19A,2.36
9,E19Y,1.93
10,E19H,2.95
11,E19K,2.81
12,E19G,3.03
13,E19D,3.34
14,E19M,1.94
15,E19R,1.59
16,E19F,1.94
17,E19N,2.84
18,E19W,1.87
19,E19L,2.15
20,E19V,3.33
21,E19C,3.04
22,E19S,2.44
23,E19Q,3.39
24,G21P,3.57
25,G21A,3.57

row,Variant,protein stability index
1,G21N,3.33
2,G21I,2.63
3,G21H,3.34
4,G21C,2.91
5,G21K,2.95
6,G21R,2.93
7,G21L,3.25
8,G21S,3.64
9,G21Q,3.25
10,G21T,4.09
11,G21D,3.73
12,G21W,1.96
13,G21V,2.79
14,G21F,2.69
15,G21Y,2.68
16,G21M,2.86
17,G21E,4.26
18,H23K,2.92
19,H23F,2.01
20,H23M,3.82
21,H23Q,3.73
22,H23W,2.62
23,H23E,3.91
24,H23Y,3.58
25,H23L,3.73

row,Variant,protein stability index
1,H23R,2.95
2,H23S,4.2
3,H23N,3.64
4,H23P,3.9
5,H23C,3.16
6,H23T,2.75
7,H23A,3.66
8,H23G,3.69
9,H23D,3.58
10,H23V,2.93
11,H23I,3.21
12,D20M,2.65
13,D20P,2.35
14,D20G,2.71
15,D20L,2.31
16,D20F,2.69
17,D20K,2.74
18,D20N,2.5
19,D20Y,1.81
20,D20W,1.46
21,D20R,2.27
22,D20Q,2.61
23,D20C,3.98
24,D20H,2.99
25,D20S,2.42

row,Variant,protein stability index
1,D20T,2.86
2,D20E,3.64
3,D20I,1.97
4,T24Q,3.37
5,T24I,3.05
6,T24Y,2.34
7,T24S,3.02
8,T24K,2.61
9,T24N,3.4
10,T24P,3.82
11,T24R,2.27
12,T24D,3.86
13,T24F,2.08
14,T24V,3.36
15,T24E,4.08
16,T24L,2.38
17,T24G,3.27
18,T24M,2.52
19,T24W,2.26
20,T24A,3.46
21,T24C,2.68
22,T24H,2.5
